# Laboratory results published in paper PMC9410871, “Structural basis of DNA packaging by a ring-type ATPase from an archetypal viral system” (Nucleic Acids Research, 2022).
# B1: HK97 portal (portal complex of the procapsid) (natural protein, bacteriophage HK97, UniProt P49859 1-424, looked up)
# chain: MEEPKYTIDLRTNNGWWARLKSWFVGGRLVTPNQGSQTGPVSAHGYLGDSSINDERILQISTVWRCVSLISTLTACLPLDVFETDQNDNRKKVDLSNPLARLLRYSPNQYMTAQEFREAMTMQLCFYGNAYALVDRNSAGDVISLLPLQSANMDVKLVGKKVVYRYQRDSEYADFSQKEIFHLKGFGFTGLVGLSPIAFACKSAGVAVAMEDQQRDFFANGAKSPQILSTGEKVLTEQQRSQVEENFKEIAGGPVKKRLWILEAGFSTSAIGVTPQDAEMMASRKFQVSELARFFGVPPHLVGDVEKSTSWGSGIEQQNLGFLQYTLQPYISRWENSIQRWLIPSKDVGRLHAEHNLDGLLRGDSASRAAFMKAMGESGLRTINEMRRTDNMPPLPGGDVAMRQAQYVPITDLGTNKEPRNNGA
# notes: Portal protein of bacteriophage HK97, within the procapsid; Seen only as part of the procapsid m4; source: E. coli 594 infected with HK97 amber mutant amC2; within purified procapsids; copies: 12
# How the values were obtained:
# [1] = target: HK97 small terminase (TerS) protein GP1 (bacteriophage HK97); assay: SEC-MALS; TerS in solution; conditions not told in the main text
# [2] = target: HK97 small terminase (TerS) protein GP1 (bacteriophage HK97); assay: native MS; TerS buffer-exchanged into 200 mM ammonium acetate, pH 7.5; modified Q-Exactive Orbitrap, positive ion mode, static nanospray
# [3] = target: HK97 small terminase (TerS) protein GP1 (bacteriophage HK97); assay: crystal structure; TerS 22 mg/mL in 300 mM potassium glutamate, 20 mM HEPES pH 7.0; reservoir 9% PEG 3350, 0.1 M succinic acid pH 7.0; three subunits in the asymmetric unit around a crystallographic 3-fold axis
# [4] = target: the molecule itself; assay: cryo-EM structure; packaging reaction with 125 nM prohead, 125 nM ScaI-linearized pUC18 DNA, 1 uM TerL, 2 uM TerS, vitrified about 30 s after 1 mM ATP; 5-fold symmetry applied to resolve TerL, 6-fold to resolve the portal
Molecule,stoichiometry N [1],stoichiometry N [2],stoichiometry N [3],stoichiometry N [4]
HK97 small terminase (TerS) protein GP1 (natural protein),9,9,9,–
B1,–,–,–,12
